For this assay, the target named is S1-His (SARS-CoV-2, UniProt P0DTC2 16-685).

B1: 89C8 (antibody, V domains shown)
VH: QVQLVQSGAEVKKPGSSVKVSCKASGGTFSSYAISWVRQAPGQGLEWMGGIIPILGIANYAQKFQGRVTITADKSTSTAYMELSSLRSEDTAVYYCARGGLGFGELFRKTGYYFDYWGQGTLVTVSS
VL: EIVMTQSPATLSVSPGERATLSCRASQSVSSNLAWYQQKPGQAPRLLIYAASTRATAIPARFSGSGSGTEFTLTISSLQSEDFAVYFCQQYNKLPLTFGGGTKVDIKR
Consider B1, for which the Kd came out at 7.6 nM, the koff amounted to 0.000385 s⁻¹ and the on-rate (kon) stood at 50400 M⁻¹ s⁻¹.

The record behind these values is patent publication CN113667016A (PUMISI BIOTECHNOLOGY ZHUHAI CO LTD, dated 2021).
